Assay results reported in paper PMC9998502, “Functional selectivity of EM-2 analogs at the mu-opioid receptor” (Frontiers in Pharmacology, 2023).
Starred links: 1 amine or outer side, 2 acyl side, 3 side chain; linkers in the order of their positions; H or OH if unused. Non-standard residues stand in square brackets, D forms with d. No end group written: not given here. (R)β21Nal = (R)-β2-1-naphthylalanine, O=C([C@@H](CN[*:1])Cc1cccc2ccccc12)[*:2]; (R)β31Nal = (R)-β3-1-naphthylalanine, O=C(C[C@@H](Cc1cccc2ccccc12)N[*:1])[*:2]; Dmt = Cc1cc(O)cc(C)c1C[C@H](N)C(=O)O

Legend:
[1] = molecular target: T1, human delta opioid receptor (human, UniProt P41143 1-372); experiment: radioligand binding; displacement of [3H]deltorphin-2 from commercial membranes of CHO cells transfected with the human recombinant delta opioid receptor; Ki, mean ± SEM, n ≥ 3; conditions: one partner purified
T1 construct: delta opioid receptor, human recombinant, in membranes of transfected CHO cells; also called delta receptor; source: commercial membranes of CHO cells transfected with human recombinant opioid receptors
T1 sequence (P41143 whole entry, stated change not applied): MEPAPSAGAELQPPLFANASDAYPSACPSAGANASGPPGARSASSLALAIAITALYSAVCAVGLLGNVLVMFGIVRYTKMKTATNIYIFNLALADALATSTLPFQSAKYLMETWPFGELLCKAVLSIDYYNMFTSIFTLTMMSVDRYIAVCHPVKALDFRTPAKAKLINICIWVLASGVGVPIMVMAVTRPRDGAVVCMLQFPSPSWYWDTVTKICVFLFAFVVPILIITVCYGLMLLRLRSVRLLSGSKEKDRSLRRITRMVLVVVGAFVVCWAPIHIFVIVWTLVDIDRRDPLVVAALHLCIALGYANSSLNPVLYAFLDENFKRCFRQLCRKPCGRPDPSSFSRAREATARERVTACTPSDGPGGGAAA

[2] = molecular target: T2, human kappa opioid receptor (human, UniProt P41145 1-380); experiment: radioligand binding; displacement of [3H]U-69593 from commercial membranes of CHO cells transfected with the human recombinant kappa opioid receptor; Ki, mean ± SEM, n ≥ 3; conditions: one partner purified
T2 construct: kappa opioid receptor, human recombinant, in membranes of transfected CHO cells; also called kappa receptor; source: commercial membranes of CHO cells transfected with human recombinant opioid receptors
T2 sequence (P41145 whole entry): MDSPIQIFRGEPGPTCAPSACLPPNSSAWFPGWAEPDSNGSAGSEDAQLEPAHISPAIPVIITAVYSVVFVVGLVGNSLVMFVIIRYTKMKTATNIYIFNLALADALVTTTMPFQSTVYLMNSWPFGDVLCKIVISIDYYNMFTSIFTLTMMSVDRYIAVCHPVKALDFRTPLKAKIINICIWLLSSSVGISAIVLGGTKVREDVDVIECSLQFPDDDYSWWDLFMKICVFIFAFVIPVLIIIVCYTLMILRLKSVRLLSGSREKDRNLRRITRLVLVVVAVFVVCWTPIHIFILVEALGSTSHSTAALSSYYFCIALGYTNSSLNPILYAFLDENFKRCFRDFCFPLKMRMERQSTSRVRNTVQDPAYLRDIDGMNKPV

[3] = molecular target: T3, human mu opioid receptor (human, UniProt P35372 1-400); experiment: radioligand binding; displacement of [3H]DAMGO from commercial membranes of CHO cells transfected with the human recombinant mu opioid receptor; Ki, mean ± SEM, n ≥ 3; conditions: one partner purified
T3 construct: mu opioid receptor, human recombinant, in membranes of transfected CHO cells; also called mu receptor; source: commercial membranes of CHO cells transfected with human recombinant opioid receptors
T3 sequence (P35372 whole entry): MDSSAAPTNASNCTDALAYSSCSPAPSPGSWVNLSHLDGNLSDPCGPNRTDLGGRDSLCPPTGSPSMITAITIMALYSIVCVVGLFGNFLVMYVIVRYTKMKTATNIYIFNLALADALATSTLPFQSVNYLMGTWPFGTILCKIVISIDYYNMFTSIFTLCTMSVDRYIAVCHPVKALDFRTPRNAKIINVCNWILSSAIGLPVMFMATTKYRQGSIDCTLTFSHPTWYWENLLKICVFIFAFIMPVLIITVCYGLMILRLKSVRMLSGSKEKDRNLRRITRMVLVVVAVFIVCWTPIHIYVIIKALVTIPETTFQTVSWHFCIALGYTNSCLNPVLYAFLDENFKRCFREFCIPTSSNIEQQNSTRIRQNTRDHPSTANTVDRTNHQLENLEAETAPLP

[4] = molecular target: T3, human mu opioid receptor; experiment: cell-based or functional assay

Binder	Ki [1]	Ki [2]	Ki [3]	calcium mobilization, CHO cells with human mu receptor and Gαqi5: α (Emax ratio to the standard agonist) [4]
[Dmt]P[(R)β21Nal]F-NH2 (N-terminus assumed; SMILES Cc1cc(O)cc(C)c1C[C@H](N)C(=O)N1CCC[C@H]1C(=O)NC[C@@H](Cc1cccc2ccccc12)C(=O)N[C@@H](Cc1ccccc1)C(N)=O) [EM-2 analog 11 (Dmt-Pro-(R)-β2-1-Nal-Phe-NH2)]	675 nM	> 1000 nM	9.54 nM	0.57
YP[(R)β31Nal]F-NH2 (N-terminus assumed; SMILES NC(=O)[C@H](Cc1ccccc1)NC(=O)C[C@@H](Cc1cccc2ccccc12)NC(=O)[C@@H]1CCCN1C(=O)[C@@H](N)Cc1ccc(O)cc1) [EM-2 analog 12 (Tyr-Pro-(R)-β3-1-Nal-Phe-NH2)]	> 1000 nM	> 1000 nM	32.1 nM	0.97
YP[(R)β21Nal]F-NH2 (N-terminus assumed; SMILES NC(=O)[C@H](Cc1ccccc1)NC(=O)[C@@H](CNC(=O)[C@@H]1CCCN1C(=O)[C@@H](N)Cc1ccc(O)cc1)Cc1cccc2ccccc12) [EM-2 analog 10 (Tyr-Pro-(R)-β2-1-Nal-Phe-NH2)]	> 1000 nM	> 1000 nM	34.9 nM	0.25
[Dmt]P[(R)β31Nal]F-NH2 (N-terminus assumed; SMILES Cc1cc(O)cc(C)c1C[C@H](N)C(=O)N1CCC[C@H]1C(=O)N[C@@H](CC(=O)N[C@@H](Cc1ccccc1)C(N)=O)Cc1cccc2ccccc12) [EM-2 analog 13 (Dmt-Pro-(R)-β3-1-Nal-Phe-NH2)]	722 nM	915 nM	2.75 nM	0.77
